Measurements from publication PMC3950679.

How the values were obtained:
[1] = biological target: T1, Cid1 WT (Schizosaccharomyces pombe, UniProt O13833 40-377); experiment: EMSA
T1 sequence: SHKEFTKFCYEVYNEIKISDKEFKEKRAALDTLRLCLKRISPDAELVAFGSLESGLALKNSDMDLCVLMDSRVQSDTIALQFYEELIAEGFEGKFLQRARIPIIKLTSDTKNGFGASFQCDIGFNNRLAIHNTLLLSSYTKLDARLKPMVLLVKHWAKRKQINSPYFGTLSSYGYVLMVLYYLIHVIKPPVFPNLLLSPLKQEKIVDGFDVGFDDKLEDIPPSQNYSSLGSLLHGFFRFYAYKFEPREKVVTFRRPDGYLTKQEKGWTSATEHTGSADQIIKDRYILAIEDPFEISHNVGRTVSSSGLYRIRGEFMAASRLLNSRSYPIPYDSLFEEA

[2] = biological target: T2, Cid1 D160A (Schizosaccharomyces pombe, UniProt O13833 40-377, D160A); experiment: EMSA
T2 sequence: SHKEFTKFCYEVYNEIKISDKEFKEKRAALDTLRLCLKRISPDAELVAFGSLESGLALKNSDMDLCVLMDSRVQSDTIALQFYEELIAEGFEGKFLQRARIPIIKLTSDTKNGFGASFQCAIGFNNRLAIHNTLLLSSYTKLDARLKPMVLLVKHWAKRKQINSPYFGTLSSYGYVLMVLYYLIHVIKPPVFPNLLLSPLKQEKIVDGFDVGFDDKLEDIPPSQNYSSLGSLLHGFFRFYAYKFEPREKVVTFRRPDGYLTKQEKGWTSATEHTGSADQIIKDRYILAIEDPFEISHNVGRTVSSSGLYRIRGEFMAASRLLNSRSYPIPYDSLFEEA

UUUUUUUUUUUUUUU (ssRNA) [U15]
Kd [1]: ~1 µM
Kd [2]: ~1 µM
